Measurements: patent US20250163119A1, “COMPOUNDS FOR THE TREATMENT OF DIABETES OR OBESITY” (Eli Lilly and Company, priority 2023, published 2025)
*1 amine or outer side, *2 acyl side, *3 side chain or, on linkers, in order; H or OH if unused. Where no end group is shown, it is not given here. Side-chain parts run from the residue outwards. [ ]: non-standard residue; d: D form. The star is where a group is joined. C20 diacid = O=C(O)CCCCCCCCCCCCCCCCCCC(=O)*; C18 diacid = O=C(O)CCCCCCCCCCCCCCCCC(=O)*; γGlu = O=C(O)[C@H](CCC(=O)[*:2])N[*:1]; εLys = N[C@@H](CCCCN[*:1])C(=O)[*:2]; pGlu = O=C1CC[C@@H](C(=O)O)N1; αMeL = CC(C)C[C@](C)(N)C(=O)O; PKE = not defined here; AEEA = NCCOCCOCC(=O)O; Aib = CC(C)(N)C(=O)O; Ahx = NCCCCCC(=O)O; βAla = NCCC(=O)O

T1: human corticotropin-releasing hormone receptor 1 (CRHR1) (human, UniProt P34998 24-415)
T1 sequence (looked up): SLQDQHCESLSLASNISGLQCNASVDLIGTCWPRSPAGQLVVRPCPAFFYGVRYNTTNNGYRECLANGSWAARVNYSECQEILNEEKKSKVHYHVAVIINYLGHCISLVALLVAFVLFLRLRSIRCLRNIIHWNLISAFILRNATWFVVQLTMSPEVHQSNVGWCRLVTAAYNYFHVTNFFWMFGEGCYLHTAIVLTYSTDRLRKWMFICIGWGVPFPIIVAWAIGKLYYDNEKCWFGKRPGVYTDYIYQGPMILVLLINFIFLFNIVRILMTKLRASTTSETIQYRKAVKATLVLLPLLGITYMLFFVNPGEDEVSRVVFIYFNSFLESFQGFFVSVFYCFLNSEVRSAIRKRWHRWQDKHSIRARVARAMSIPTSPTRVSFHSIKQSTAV

B1: polypeptide comprising SEQ ID NO:26 (peptide)
peptide: [γGlu]GSPSIVTS[αMeL]DVPT[Aib][αMeL]LQKILEQERAEKARQQATEAAEILAQV-NH2
modifications: not fully specified (residue 1, N-terminus); also: Glu1 linked through its gamma-carboxyl to Gly2
B2: polypeptide comprising SEQ ID NO:28 (peptide)
peptide: [γGlu]GSPSIVTS[αMeL]DVPT[Aib][αMeL]LQKILEQERAEKARQQATEAAEILAQV-NH2
modifications: not fully specified (residue 1, N-terminus); also: Glu1 linked through its gamma-carboxyl to Gly2

Biological target: T1, human corticotropin-releasing hormone …
Experiment: cell-based or functional assay

hCRHR1 cAMP EC50 [µM] | Binder
> 10 | Ac-GSPSIVTS[αMeL]DVPT[Aib][αMeL]LQKILEQERAEKARQQAKEAAEILAQV-NH2 [polypeptide comprising SEQ ID NO:20]
> 10 | Ac-GSPSIVTS[αMeL]DVPT[Aib][αMeL]LQKILEQERAEKARQQAK([γGlu-Pro-Glu-Pro-Glu-Pro-Glu-C20 diacid])EAAEILAQV-NH2 [polypeptide comprising SEQ ID NO:16]
> 10 | Ac-GSPSIVTS[αMeL]DVPT[Aib][αMeL]LQKILEQERAEKARQQAK([γGlu-εLys-γGlu-εLys-C20 diacid])EAAEILAQV-NH2 [polypeptide comprising SEQ ID NO:18]
> 10 | Ac-IVTS[αMeL]D[dV]PTG[αMeL]LQIKLEQERAEKARQQAKENTEILAQV-NH2 (not fully specified (residue 29)) [polypeptide comprising SEQ ID NO:30]
> 10 | H-GSPSIVTS[αMeL]DVPT[Aib][αMeL]LQKILEQERAEKARQQATEAAEILAQV-NH2 [polypeptide comprising SEQ ID NO:27]
> 10 | Ac-GSPSIVTS[αMeL]DVPT[Aib][αMeL]LQKILEQERAEKARQQAK([γGlu-εLys-AEEA-εLys-C20 diacid])EAAEILAQV-NH2 [polypeptide comprising SEQ ID NO:19]
4.3 | Ac-IVTS[αMeL]D[dV]PI[Aib][αMeL]LQIKLEQERAEKARQQAKENTEILAQV-NH2 (not fully specified (residue 29)) [polypeptide comprising SEQ ID NO:51]
> 10 | Ac-GSPSIVTS[αMeL]DVPT[Aib][αMeL]LQKILEQERAEKARQQAK([γGlu-GKEKEKE-C20 diacid])EAAEILAQV-NH2 [polypeptide comprising SEQ ID NO:6]
> 10 | Ac-IVTS[αMeL]D[dV]PTG[αMeL]LQIKLEQERAEKARQQAKENTEILAQV-NH2 (not fully specified (residue 29)) [polypeptide comprising SEQ ID NO:31]
> 10 | B1
1.5 | [γGlu]GSPSIVTS[αMeL]DVPT[Aib][αMeL]LEKILEQERAEKARQQATEAAEILAQV-NH2 (not fully specified (residue 1, N-terminus)) [polypeptide comprising SEQ ID NO:52]
> 10 | B2
> 10 | Ac-GSPSIVTS[αMeL]DVPT[Aib][αMeL]LQKILEQERAEKARQQAK([AEEA-PKE-γGlu-C20 diacid])EAAEILAQV-NH2 (reading uncertain) [polypeptide comprising SEQ ID NO:3]
> 10 | Ac-GSPSIVTS[αMeL]DVPT[Aib][αMeL]LQKILEQERAEKARQQAK([AEEA-KEKEKE-γGlu-C20 diacid])EAAEILAQV-NH2 [polypeptide comprising SEQ ID NO:9]
> 10 | Ac-GSPSIVTS[αMeL]DVPT[Aib][αMeL]LQKILEQERAEKARQQAK([γGlu-AEEA-Ahx-C20 diacid])EAAEILAQV-NH2 [polypeptide comprising SEQ ID NO:5]
> 10 | Ac-GSPSIVTS[αMeL]DVPT[Aib][αMeL]LQKLLEQERAEKARQQAK([γGlu-AEEA-Lys-C18 diacid])EAAEILAQV-NH2 (not fully specified) [polypeptide comprising SEQ ID NO:12]
> 10 | Ac-GSPSIVTS[αMeL]DVPT[Aib][αMeL]LQKILEQERAEKARQQAK([Gly-βAla-βAla-βAla-βAla-γGlu-C20 diacid])EAAEILAQV-NH2 [polypeptide comprising SEQ ID NO:8]
> 10 | Ac-GSPSIVTS[αMeL]DVPT[Aib][αMeL]LQKILEQERAEKARQQAK([Gly-βAla-βAla-βAla-γGlu-C20 diacid])EAAEILAQV-NH2 [polypeptide comprising SEQ ID NO:7]
> 10 | Ac-GSPSIVTS[αMeL]DVPT[Aib][αMeL]LQKILEQERAEKARQQAK([γGlu-AEEA-εLys-C18 diacid])EAAEILAQV-NH2 [polypeptide comprising SEQ ID NO:21]
> 10 | Ac-GSPSIVTS[αMeL]DVPT[Aib][αMeL]LQKILEQERAEKARQQAK([γGlu-AEEA-AEEA-εLys-C20 diacid])EAAEILAQV-NH2 [polypeptide comprising SEQ ID NO:17]
> 10 | Ac-GSPSIVTS[αMeL]DVPT[Aib][αMeL]LQKILEQERAEKARQQAK([γGlu-Pro-Lys-Glu-Ahx-C20 diacid])EAAEILAQV-NH2 [polypeptide comprising SEQ ID NO:11]
> 10 | [pGlu]GSPSGIVTS[αMeL]DVPT[Aib][αMeL]LQKILEQERAEKARQQAK([γGlu-AEEA-εLys-C18 diacid])EAAEILAQV-NH2 [polypeptide comprising SEQ ID NO:24]
> 10 | Ac-GSPSIVTS[αMeL]DVPT[Aib][αMeL]LQKILEQERAEKARQQAK([γGlu-Pro-Pro-Pro-Pro-Pro-Pro-C20 diacid])EAAEILAQV-NH2 [polypeptide comprising SEQ ID NO:15]
> 10 | Ac-GSPSIVTS[αMeL]DVPT[Aib][αMeL]LQKILEQERAEKARQQAK([βAla-Ser-βAla-Ser-γGlu-C20 diacid])EAAEILAQV-NH2 [polypeptide comprising SEQ ID NO:10]
> 10 | Ac-GSPSIVTS[αMeL]DVPT[Aib][αMeL]LQKILEQERAEKARQQAK([γGlu-Pro-Pro-Pro-εLys-C20 diacid])EAAEILAQV-NH2 [polypeptide comprising SEQ ID NO:14]
> 10 | Ac-GSPSIVTS[αMeL]DVPT[Aib][αMeL]LQKILEQERAEKARQQAK([γGlu-Pro-Lys-Glu-εLys-C20 diacid])EAAEILAQV-NH2 [polypeptide comprising SEQ ID NO:13]
> 10 | [pGlu]GSPSGIVTS[αMeL]DVPT[Aib][αMeL]LQKILEQERAEKARQQAKEAAEILAQV-NH2 [polypeptide comprising SEQ ID NO:23]
